Test results published in patent publication US20240376170A1.
Bridges are numbered along the chain shown (N, C = ends). Primed or numbered codes have the meaning given here. [ ]: non-standard residue; d: D form. Ygp(4) = Tyr with amino-capped PEG8 (O-(8x polyethylene glycol-amino)-tyrosine); Yn3(4) = Tyr with azide-capped PEG9 (O-(9x polyethylene glycol-azido)-tyrosine); PEG9″ = 9x polyethylene glycol spacer; PEG4′ = 4x polyethylene glycol; PEG9′ = 9x polyethylene glycol; hSer = N[C@@H](CCO)C(=O)O; Nle = CCCC[C@H](N)C(=O)O

B1: CMP-159 (ligand)
chain: PLGLAGAPTSSSTKKTQLQLEHLLLDLE[Nle]ILNGINNYKNPKLTR[Nle]L[hSer][Yn3(4)]KF[Ygp(4)][Nle]PKKATELKHLQCLEEELKPLEEVL[hSer]LAQSKNFHLRPRDLISNINVIVLELKGSETTF[hSer]CEYADETATIVEFLNRWITFSQSIISTLT
modifications: linker N-28 via PEG4′; not fully specified (N-terminus); ends not checked
B2: CMP-152, MMP2 cleaved (ligand)
chain: PLGLAGAPTSSSTKKTQLQLEHLLLDLQ[Nle]ILNGINNYKNPKLTR[Nle]L[hSer][Yn3(4)]KF[Ygp(4)][Nle]PKKATELKHLQCLEEELKPLEEVL[hSer]LAQSKNFHLRPRDLISNINVIVLELKGSETTF[hSer]CEYADETATIVEFLNRWITFSQSIISTLT
modifications: linker N-38 via glutaryl‑PEG9; not fully specified (N-terminus); ends not checked; also: cleavable peptide cut by MMP2, site not given here
B3: CMP-154 (ligand)
chain: PLGLAGAPTSSSTKKTQLQLEHLLLDLQ[Nle]ILNGIENYKNPKLTR[Nle]L[hSer][Yn3(4)]KF[Ygp(4)][Nle]PKKATELKHLQCLEEELKPLEEVL[hSer]LAQSKNFHLRPRDLISNINVIVLELKGSETTF[hSer]CEYADETATIVEFLNRWITFSQSIISTLT
modifications: linker N-35 via PEG9′; not fully specified (N-terminus); ends not checked
B4: CMP-161, MMP2 cleaved (ligand)
chain: PLGLAGAPTSSSTKKTQLQLEHLLLDLQ[Nle]ILEGINNYKNPKLTR[Nle]L[hSer][Yn3(4)]KF[Ygp(4)][Nle]PKKATELKHLQCLEEELKPLEEVL[hSer]LAQSKNFHLRPRDLISNINVIVLELKGSETTF[hSer]CEYADETATIVEFLNRWITFSQSIISTLT
modifications: not fully specified (N-terminus, bridges); ends and bridges not checked; also: cut by MMP2 in the PLGLAG linker, site not given here, ring opened
B5: CMP-161 (ligand)
chain: PLGLAGAPTSSSTKKTQLQLEHLLLDLQ[Nle]ILEGINNYKNPKLTR[Nle]L[hSer][Yn3(4)]KF[Ygp(4)][Nle]PKKATELKHLQCLEEELKPLEEVL[hSer]LAQSKNFHLRPRDLISNINVIVLELKGSETTF[hSer]CEYADETATIVEFLNRWITFSQSIISTLT
modifications: linker N-32 via PEG9″; not fully specified (N-terminus); ends not checked
B6: CMP-152 (ligand)
chain: PLGLAGAPTSSSTKKTQLQLEHLLLDLQXILNGINNYKNPKLTRXLXYKFYXPKKATELKHLQCLEEELKPLEEVLXLAQSKNFHLRPRDLISNINVIVLELKGSETTFXCEYADETATIVEFLNRWITFSQSIISTLT
modifications: not fully specified; Nle, Hse, Yn3 (Tyr with azide-capped PEG9), Ygp (Tyr with amino-capped PEG8) as printed in Table 3; PEG9-PLGLAG on the N-terminus, cyclised through glutaryl to the side chain of Lys 32
B7: CMP-159, MMP2 cleaved (ligand)
chain: PLGLAGAPTSSSTKKTQLQLEHLLLDLE[Nle]ILNGINNYKNPKLTR[Nle]L[hSer][Yn3(4)]KF[Ygp(4)][Nle]PKKATELKHLQCLEEELKPLEEVL[hSer]LAQSKNFHLRPRDLISNINVIVLELKGSETTF[hSer]CEYADETATIVEFLNRWITFSQSIISTLT
modifications: linker N-28 via PEG4′; not fully specified (N-terminus); ends not checked; also: cut by MMP2 in the PLGLAG linker, site not given here, ring opened
B8: CMP-154, MMP2 cleaved (ligand)
chain: PLGLAGAPTSSSTKKTQLQLEHLLLDLQ[Nle]ILNGIENYKNPKLTR[Nle]L[hSer][Yn3(4)]KF[Ygp(4)][Nle]PKKATELKHLQCLEEELKPLEEVL[hSer]LAQSKNFHLRPRDLISNINVIVLELKGSETTF[hSer]CEYADETATIVEFLNRWITFSQSIISTLT
modifications: linker N-35 via PEG9′; not fully specified (N-terminus); ends not checked; also: cleavable peptide cut by MMP2, site not given here

Each binder was assayed against IL-2Rβγ (CD122+, CD132+) on HEK-Blue IL-2Rβγ reporter cells (UniProt P14784) (assay: cell-based or functional assay).
Sequence of IL-2Rβγ (CD122+, CD132+) on HEK-Blue IL-2Rβγ reporter cells (P14784 27-551 limits assumed, chain 1 of 2): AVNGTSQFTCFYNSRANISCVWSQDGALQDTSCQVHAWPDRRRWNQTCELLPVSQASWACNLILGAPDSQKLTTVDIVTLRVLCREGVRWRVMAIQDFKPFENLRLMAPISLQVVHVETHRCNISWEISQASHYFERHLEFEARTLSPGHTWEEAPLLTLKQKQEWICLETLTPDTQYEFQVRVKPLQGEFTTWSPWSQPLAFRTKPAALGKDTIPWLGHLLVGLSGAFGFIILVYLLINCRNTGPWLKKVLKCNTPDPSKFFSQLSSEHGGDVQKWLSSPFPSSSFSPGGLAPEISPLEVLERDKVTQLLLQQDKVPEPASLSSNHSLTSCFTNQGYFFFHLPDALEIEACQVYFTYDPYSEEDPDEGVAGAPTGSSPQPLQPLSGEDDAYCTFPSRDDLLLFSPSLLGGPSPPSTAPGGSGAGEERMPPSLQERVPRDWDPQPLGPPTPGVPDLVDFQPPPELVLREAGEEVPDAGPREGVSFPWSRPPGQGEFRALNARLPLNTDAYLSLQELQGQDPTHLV
Sequence of IL-2Rβγ (CD122+, CD132+) on HEK-Blue IL-2Rβγ reporter cells (P31785 23-369 limits assumed, chain 2 of 2, further chain): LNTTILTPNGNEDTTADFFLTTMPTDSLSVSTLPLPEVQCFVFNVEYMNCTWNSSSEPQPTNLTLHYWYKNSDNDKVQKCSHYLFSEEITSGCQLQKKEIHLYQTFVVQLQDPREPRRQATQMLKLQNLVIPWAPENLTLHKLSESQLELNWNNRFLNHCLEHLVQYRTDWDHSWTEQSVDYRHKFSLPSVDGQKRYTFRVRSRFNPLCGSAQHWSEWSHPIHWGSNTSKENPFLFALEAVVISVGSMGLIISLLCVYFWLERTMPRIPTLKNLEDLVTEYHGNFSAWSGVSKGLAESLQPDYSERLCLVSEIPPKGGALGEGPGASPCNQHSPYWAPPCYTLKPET
In the case of B1, the Average EC50 (nM), HEK-Blue IL-2R (CD122+, CD132+) Reporter Assay is reported as 0.192 nM.
For B2, the Average EC50 (nM), HEK-Blue IL-2R (CD122+, CD132+) Reporter Assay was 0.0064 nM.
B3 was tested, and the Average EC50 (nM), HEK-Blue IL-2R (CD122+, CD132+) Reporter Assay was 0.106 nM.
B4 was tested, and the Average EC50 (nM), HEK-Blue IL-2R (CD122+, CD132+) Reporter Assay was 0.0118 nM.
B5 gave an Average EC50 (nM), HEK-Blue IL-2R (CD122+, CD132+) Reporter Assay of 0.168 nM.
For B6, the Average EC50 (nM), HEK-Blue IL-2R (CD122+, CD132+) Reporter Assay was 0.0597 nM.
B7 gave an Average EC50 (nM), HEK-Blue IL-2R (CD122+, CD132+) Reporter Assay of 0.0071 nM.
B8 gave an Average EC50 (nM), HEK-Blue IL-2R (CD122+, CD132+) Reporter Assay of 0.0059 nM.
